Laboratory results reported in US20190218479A1, “Stabilized Liquid Peroxide Compositions” (Novozymes A/S, priority 2016, published 2019).

Columns and labels:
Type in all cases: physicochemical
[1] = Stability of Subtilisin1 and Subtilisin2 in the liquid peroxide composition of Table 1 (residual protease activity, N,N-dimethylcasein/TNBS); conditions: for % Subtilisin residual activity after 4 weeks: liquid peroxide composition in Table 1 (0.8% H2O2, pH 7.0)
Description: (§1) The compositions were prepared as shown in the examples and samples stored in closed vials for storage. Residual activity was measured by comparing activity in a stored sample at the time of taken out of incubation without freezing and comparing activity to a freshly prepared sample without peroxide and dividing activity in the stored sample with activity in the fresh sample.
(§2) Activity analysis is performed by analysing protease activity by hydrolysis of N,N-dimethylcasein to produce a carboxylic acid and a primary amine compounds. The primary amines that are formed react, under alkaline conditions, with tri-nitrobenzenesulfonic acid (TNBS) to form a colored complex. The amount of colored complex that forms over the fixed reaction period at a constant temperature (530 seconds at 40° C.; complex absorbance is measured at 405 nm) is related to the amount of active protease present in the sample. The amount of colored product complex produced is compared to a standard curve based on known protease concentrations to calculate the amount of active protease in the detergent sample. The amount of protease activity at a specific time point is compared to the t=0 activity level to calculate the % active protease remaining.

[2] = Residual hydrogen peroxide after storage, permanganate titration
Description: Residual hydrogen peroxide (H2O2) was measured by permanganate titration (reduction of potassium permanganate by hydrogen peroxide in sulfuric acid).

Subtilisin1 [3] = biological target: T1, Subtilisin1 (Lederbergia lenta, UniProt P29600, M216S); assay: Residual activity of Subtilisin1 after storage in peroxide model detergents with or without subtilisin stabilizers (N,N-dimethylcasein/TNBS)
Text: Chemicals used as buffers and substrates were commercial products of at least reagent grade. Subtilisin1 has the amino acid sequence as shown in SEQ ID NO: 2, which is a subtilisin having a M216 substitution according to the invention. Subtilisin2 has the amino acid sequence as shown in SEQ ID NO: 1, which is a reference subtilisin not covered by the invention. The stock solution of each subtilisin contains 4.4% w/w of active enzyme protein. Stabilizer1: Cbz-Gly-Ala-Tyr-H (C-terminal aldehyde), wherein Cbz is benzyloxycarbonyl; which is a subtilisin stabilizer according to the invention. When used in the examples below, Stabilizer1 was added to the subtilisin stock solution at a concentration of 0.28% w/w. Stabilizer2: Cbz-Gly-Ala-NHCH(CH2C6H4pOH)CH(OH)(OSO3)Na (hydrosulfite adduct of a C-terminal aldehyde) wherein Cbz is benzyloxycarbonyl; which is a subtilisin stabilizer according to the invention. When used in the examples below, Stabilizer2 was added to the subtilisin stock solution at a concentration of 0.35% w/w. Stabilizer3: MeOCO-Val-Ala-Leu-H (C-terminal aldehyde). When used in the examples below, Stabilizer3 was added to the subtilisin stock solution at a concentration of 0.28% w/w. Stabilizer4: 4-formyl-phenyl-boronic acid (4-FPBA); which is a reference protease stabilizer not covered by the invention. When used in the examples below, Stabilizer4 was added to the subtilisin stock solution at a concentration of 3.4% w/w.
as §1, §2
This study examined Subtilisin1 stability in the presence of hydrogen peroxide, with and without subtilisin stabilizers (Stabilizer4 and Stabilizer2) in two different model detergents at pH 7 and 9.

Subtilisin1 [4] = biological target: T1, Subtilisin1; assay: as above; remark: listed apart in the source

B1: Subtilisin1: subtilisin with amino acid sequence SEQ ID NO: 2, having a M216 substitution according to the invention (protein)
chain: AQSVPWGISRVQAPAAHNRGLTGSGVKVAVLDTGISTHPDLNIRGGASFVPGEPSTQDGNGHGTHVAGTIAALNNSIGVLGVAPSAELYAVKVLGASGSGSVSSIAQGLEWAGNNGMHVANLSLGSPSPSATLEQAVNSATSRGVLVVAASGNSGAGSISYPARYANAMAVGATDQNNNRASFSQYGAGLDIVAPGVNVQSTYPGSTYASLNGTSSATPHVAGAAALVKQKNPSWSNVQIRNHLKNTATSLGSTNLYGSGLVNAEAATR
modifications: Variant of SEQ ID NO 1
% Subtilisin residual activity after 4 weeks ([1]; 22° C.): 81% | % Subtilisin residual activity after 4 weeks ([1]; 30° C.): 61% | % Subtilisin residual activity after 4 weeks ([1]; 37° C.): 46% | stability in the liquid peroxide composition, compared with Subtilisin2 ([1]; liquid peroxide composition in Table 1, summary of Table 2): much better | Residual H2O2 after 4 weeks ([2]; liquid peroxide composition in Table 1, 22° C.): 99.0% | Residual H2O2 after 4 weeks ([2]; liquid peroxide composition in Table 1, 30° C.): 98.7% | Residual H2O2 after 4 weeks ([2]; liquid peroxide composition in Table 1, 37° C.): 97.8% | Residual H2O2 (after storage) ([2]; nonionic laundry detergent in Table 7, relative to initially added H2O2 = 1%, 22° C., pH 7): 95% | Residual H2O2 (after storage) ([2]; nonionic laundry detergent in Table 7, relative to initially added H2O2 = 1%, 22° C., pH 9): 95% | Residual H2O2 (after storage) ([2]; nonionic laundry detergent in Table 7, relative to initially added H2O2 = 1%, 30° C., pH 7): 94% | Residual H2O2 (after storage) ([2]; nonionic laundry detergent in Table 7, relative to initially added H2O2 = 1%, 30° C., pH 9): 94% | Residual H2O2 (after storage) ([2]; nonionic laundry detergent in Table 7, relative to initially added H2O2 = 1%, 37° C., pH 7): 92% | Residual H2O2 (after storage) ([2]; nonionic laundry detergent in Table 7, relative to initially added H2O2 = 1%, 37° C., pH 9): 91% | Residual H2O2 (after storage) ([2]; nonionic pretreatment detergent in Table 4, relative to initially added H2O2 = 1%, 22° C., pH 7): ≥100% | Residual H2O2 (after storage) ([2]; nonionic pretreatment detergent in Table 4, relative to initially added H2O2 = 1%, 22° C., pH 9): 93% | Residual H2O2 (after storage) ([2]; nonionic pretreatment detergent in Table 4, relative to initially added H2O2 = 1%, 30° C., pH 7): ≥100% | Residual H2O2 (after storage) ([2]; nonionic pretreatment detergent in Table 4, relative to initially added H2O2 = 1%, 30° C., pH 9): 91% | Residual H2O2 (after storage) ([2]; nonionic pretreatment detergent in Table 4, relative to initially added H2O2 = 1%, 37° C., pH 7): ≥100% | Residual H2O2 (after storage) ([2]; nonionic pretreatment detergent in Table 4, relative to initially added H2O2 = 1%, 37° C., pH 9): 90% | Residual H2O2 (after storage) ([2]; nonionic/anionic laundry detergent in Table 13, relative to initially added H2O2 = 1%, 22° C., pH 7): 101% | Residual H2O2 (after storage) ([2]; nonionic/anionic laundry detergent in Table 13, relative to initially added H2O2 = 1%, 22° C., pH 9): 95% | Residual H2O2 (after storage) ([2]; nonionic/anionic laundry detergent in Table 13, relative to initially added H2O2 = 1%, 30° C., pH 7): 99% | Residual H2O2 (after storage) ([2]; nonionic/anionic laundry detergent in Table 13, relative to initially added H2O2 = 1%, 30° C., pH 9): 92% | Residual H2O2 (after storage) ([2]; nonionic/anionic laundry detergent in Table 13, relative to initially added H2O2 = 1%, 37° C., pH 7): 101% | Residual H2O2 (after storage) ([2]; nonionic/anionic laundry detergent in Table 13, relative to initially added H2O2 = 1%, 37° C., pH 9): 97% | Residual H2O2 (after storage) ([2]; nonionic/anionic pretreatment detergent in Table 10, relative to initially added H2O2 = 1%, 22° C., pH 7): 88% | Residual H2O2 (after storage) ([2]; nonionic/anionic pretreatment detergent in Table 10, relative to initially added H2O2 = 1%, 30° C., pH 7): 86% | Residual H2O2 (after storage) ([2]; nonionic/anionic pretreatment detergent in Table 10, relative to initially added H2O2 = 1%, 37° C., pH 7): 100% | Residual H2O2 (after storage) ([2]; nonionic/anionic pretreatment detergent in Table 10, relative to initially added H2O2 = 1%, 37° C., pH 9): 95% | Residual H2O2 (after storage) ([2]; nonionic/anionic pretreatment detergent in Table 16, relative to initially added H2O2 = 2%, 22° C., pH 7): 87% | Residual H2O2 (after storage) ([2]; nonionic/anionic pretreatment detergent in Table 16, relative to initially added H2O2 = 2%, 30° C., pH 7): 84% | Residual H2O2 (after storage) ([2]; nonionic/anionic pretreatment detergent in Table 16, relative to initially added H2O2 = 2%, 37° C., pH 7): 90% | Residual H2O2 (after storage) ([2]; nonionic/anionic pretreatment detergent in Table 16, relative to initially added H2O2 = 2%, 37° C., pH 9): 92% | Residual activity of Subtilisin1 after storage (Subtilisin1 [3]; liquid nonionic laundry detergent in Table 7 (1.0% H2O2), 22° C., pH 7): 63% | Residual activity of Subtilisin1 after storage (Subtilisin1 [3]; liquid nonionic laundry detergent in Table 7 (1.0% H2O2), 22° C., pH 9): 75% | Residual activity of Subtilisin1 after storage (Subtilisin1 [3]; liquid nonionic laundry detergent in Table 7 (1.0% H2O2), 30° C., pH 7): 47% | Residual activity of Subtilisin1 after storage (Subtilisin1 [3]; liquid nonionic laundry detergent in Table 7 (1.0% H2O2), 30° C., pH 9): 68% | Residual activity of Subtilisin1 after storage (Subtilisin1 [3]; liquid nonionic laundry detergent in Table 7 (1.0% H2O2), 37° C., pH 7): 30% | Residual activity of Subtilisin1 after storage (Subtilisin1 [3]; liquid nonionic laundry detergent in Table 7 (1.0% H2O2), 37° C., pH 9): 45% | Residual activity of Subtilisin1 after storage (Subtilisin1 [3]; liquid nonionic pretreatment detergent in Table 4 (1.0% H2O2), 22° C., pH 7): 85% | Residual activity of Subtilisin1 after storage (Subtilisin1 [3]; liquid nonionic pretreatment detergent in Table 4 (1.0% H2O2), 22° C., pH 9): 40% | Residual activity of Subtilisin1 after storage (Subtilisin1 [3]; liquid nonionic pretreatment detergent in Table 4 (1.0% H2O2), 30° C., pH 7): 65% | Residual activity of Subtilisin1 after storage (Subtilisin1 [3]; liquid nonionic pretreatment detergent in Table 4 (1.0% H2O2), 30° C., pH 9): 19% | Residual activity of Subtilisin1 after storage (Subtilisin1 [3]; liquid nonionic pretreatment detergent in Table 4 (1.0% H2O2), 37° C., pH 7): 44% | Residual activity of Subtilisin1 after storage (Subtilisin1 [3]; liquid nonionic pretreatment detergent in Table 4 (1.0% H2O2), 37° C., pH 9): 12% | Residual activity of Subtilisin1 after storage (Subtilisin1 [3]; liquid nonionic/anionic laundry detergent in Table 13 (1.0% H2O2), 22° C., pH 7): 84% | Residual activity of Subtilisin1 after storage (Subtilisin1 [3]; liquid nonionic/anionic laundry detergent in Table 13 (1.0% H2O2), 22° C., pH 9): 63% | Residual activity of Subtilisin1 after storage (Subtilisin1 [3]; liquid nonionic/anionic laundry detergent in Table 13 (1.0% H2O2), 30° C., pH 7): 62% | Residual activity of Subtilisin1 after storage (Subtilisin1 [3]; liquid nonionic/anionic laundry detergent in Table 13 (1.0% H2O2), 30° C., pH 9): 34% | Residual activity of Subtilisin1 after storage (Subtilisin1 [3]; liquid nonionic/anionic laundry detergent in Table 13 (1.0% H2O2), 37° C., pH 7): 40% | Residual activity of Subtilisin1 after storage (Subtilisin1 [3]; liquid nonionic/anionic laundry detergent in Table 13 (1.0% H2O2), 37° C., pH 9): 23% | Residual activity of Subtilisin1 after storage (Subtilisin1 [3]; liquid nonionic/anionic pretreatment detergent in Table 10 (1.0% H2O2), 22° C., pH 7): 79% | Residual activity of Subtilisin1 after storage (Subtilisin1 [3]; liquid nonionic/anionic pretreatment detergent in Table 10 (1.0% H2O2), 22° C., pH 9): 57% | Residual activity of Subtilisin1 after storage (Subtilisin1 [3]; liquid nonionic/anionic pretreatment detergent in Table 10 (1.0% H2O2), 30° C., pH 7): 66% | Residual activity of Subtilisin1 after storage (Subtilisin1 [3]; liquid nonionic/anionic pretreatment detergent in Table 10 (1.0% H2O2), 30° C., pH 9): 47% | Residual activity of Subtilisin1 after storage (Subtilisin1 [3]; liquid nonionic/anionic pretreatment detergent in Table 10 (1.0% H2O2), 37° C., pH 7): 52% | Residual activity of Subtilisin1 after storage (Subtilisin1 [3]; liquid nonionic/anionic pretreatment detergent in Table 10 (1.0% H2O2), 37° C., pH 9): 29% | Residual activity of Subtilisin1 after storage (Subtilisin1 [3]; liquid nonionic/anionic pretreatment detergent in Table 16 (2.0% H2O2), 22° C., pH 7): 85% | Residual activity of Subtilisin1 after storage (Subtilisin1 [3]; liquid nonionic/anionic pretreatment detergent in Table 16 (2.0% H2O2), 22° C., pH 9): 30% | Residual activity of Subtilisin1 after storage (Subtilisin1 [3]; liquid nonionic/anionic pretreatment detergent in Table 16 (2.0% H2O2), 30° C., pH 7): 69% | Residual activity of Subtilisin1 after storage (Subtilisin1 [3]; liquid nonionic/anionic pretreatment detergent in Table 16 (2.0% H2O2), 30° C., pH 9): 12% | Residual activity of Subtilisin1 after storage (Subtilisin1 [3]; liquid nonionic/anionic pretreatment detergent in Table 16 (2.0% H2O2), 37° C., pH 7): 50% | Residual activity of Subtilisin1 after storage (Subtilisin1 [3]; liquid nonionic/anionic pretreatment detergent in Table 16 (2.0% H2O2), 37° C., pH 9): 5% | Residual activity after storage for 2 weeks at 30° C. (Subtilisin1 [4]; Subtilisin1 in “Mix Laundry” (Table 19, pH 7.5) no H2O2, no sodium salicylate, no polyDADMAC): 73% | Residual activity after storage for 2 weeks at 30° C. (Subtilisin1 [4]; Subtilisin1 in “Mix Laundry” (Table 19, pH 7.5) with 1% H2O2, with sodium salicylate, with polyDADMAC): 42% | Residual activity after storage for 2 weeks at 37° C. (Subtilisin1 [4]; Subtilisin1 in “NI pretreat” (Table 19, pH 7.0) with 1% H2O2, with sodium salicylate, with polyDADMAC): 38% | Residual activity after storage for 2 weeks at 37° C. (Subtilisin1 [4]; Subtilisin1 in “NI pretreat” (Table 19, pH 7.0) without H2O2, no sodium salicylate, no polyDADMAC): 82%
